In US20180371086A1:

Target: human CD3, on primary human T cells (human) (UniProt P07766)
Assay: cell-based or functional assay

human CD3, on primary human T cells (human), sequence (P07766 23-207 limits assumed): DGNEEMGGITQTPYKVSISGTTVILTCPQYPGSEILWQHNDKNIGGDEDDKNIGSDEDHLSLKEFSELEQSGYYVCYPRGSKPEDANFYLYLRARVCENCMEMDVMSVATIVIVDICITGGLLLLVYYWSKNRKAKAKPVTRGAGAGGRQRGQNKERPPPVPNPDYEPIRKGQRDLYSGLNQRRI

Work on PGT-121.60 (antibody) yielded a CD25 EC50; CD4 T cells; donor D1597; 7552-infected CEM cells greater than 100 µg/mL, a CD25 EC50; CD4 T cells; donor D1597; THRO-infected CEM cells greater than 100 µg/mL and a CD25 EC50; CD4 T cells; donor D1597; uninfected CEM cells greater than 100 µg/mL. The CD25 EC50; CD4 T cells; donor D2256; 7552-infected CEM cells was greater than 100 µg/mL, the CD25 EC50; CD4 T cells; donor D2256; THRO-infected CEM cells was greater than 100 µg/mL and the CD25 EC50; CD4 T cells; donor D2256; uninfected CEM cells was greater than 100 µg/mL. It also gave a CD25 EC50; CD4 T cells; donor D4246; 7552-infected CEM cells greater than 100 µg/mL, a CD25 EC50; CD4 T cells; donor D4246; THRO-infected CEM cells greater than 100 µg/mL and a CD25 EC50; CD4 T cells; donor D4246; uninfected CEM cells greater than 100 µg/mL. The CD25 EC50; CD4 T cells; donor D4279; 7552-infected CEM cells was greater than 100 µg/mL, the CD25 EC50; CD4 T cells; donor D4279; THRO-infected CEM cells was greater than 100 µg/mL and the CD25 EC50; CD4 T cells; donor D4279; uninfected CEM cells was greater than 100 µg/mL. The CD25 EC50; CD8 T cells; donor D1597; 7552-infected CEM cells was greater than 100 µg/mL, the CD25 EC50; CD8 T cells; donor D1597; THRO-infected CEM cells was greater than 100 µg/mL and the CD25 EC50; CD8 T cells; donor D1597; uninfected CEM cells was greater than 100 µg/mL. The CD25 EC50; CD8 T cells; donor D2256; 7552-infected CEM cells was greater than 100 µg/mL, the CD25 EC50; CD8 T cells; donor D2256; THRO-infected CEM cells was greater than 100 µg/mL and the CD25 EC50; CD8 T cells; donor D2256; uninfected CEM cells was greater than 100 µg/mL. The CD25 EC50; CD8 T cells; donor D4246; 7552-infected CEM cells was greater than 100 µg/mL, the CD25 EC50; CD8 T cells; donor D4246; THRO-infected CEM cells was greater than 100 µg/mL and the CD25 EC50; CD8 T cells; donor D4246; uninfected CEM cells was greater than 100 µg/mL. It also gave a CD25 EC50; CD8 T cells; donor D4279; 7552-infected CEM cells greater than 100 µg/mL, a CD25 EC50; CD8 T cells; donor D4279; THRO-infected CEM cells greater than 100 µg/mL and a CD25 EC50; CD8 T cells; donor D4279; uninfected CEM cells greater than 100 µg/mL. It also gave a CD25 Δ Emax; CD4 T cells; donor D1597; 7552-infected CEM cells of 0%, a CD25 Δ Emax; CD4 T cells; donor D1597; THRO-infected CEM cells of -2% and a CD25 Δ Emax; CD4 T cells; donor D1597; uninfected CEM cells of 3%. The CD25 Δ Emax; CD4 T cells; donor D2256; 7552-infected CEM cells was 2%, the CD25 Δ Emax; CD4 T cells; donor D2256; THRO-infected CEM cells was -1% and the CD25 Δ Emax; CD4 T cells; donor D2256; uninfected CEM cells was -1%. It also gave a CD25 Δ Emax; CD4 T cells; donor D4246; 7552-infected CEM cells of -2%, a CD25 Δ Emax; CD4 T cells; donor D4246; THRO-infected CEM cells of -2% and a CD25 Δ Emax; CD4 T cells; donor D4246; uninfected CEM cells of 0%. For the same substance, the CD25 Δ Emax; CD4 T cells; donor D4279; 7552-infected CEM cells was -1%, the CD25 Δ Emax; CD4 T cells; donor D4279; THRO-infected CEM cells was -2% and the CD25 Δ Emax; CD4 T cells; donor D4279; uninfected CEM cells was 0%. It also gave a CD25 Δ Emax; CD8 T cells; donor D1597; 7552-infected CEM cells of -1%, a CD25 Δ Emax; CD8 T cells; donor D1597; THRO-infected CEM cells of 0% and a CD25 Δ Emax; CD8 T cells; donor D1597; uninfected CEM cells of 0%. It also gave a CD25 Δ Emax; CD8 T cells; donor D2256; 7552-infected CEM cells of 0%, a CD25 Δ Emax; CD8 T cells; donor D2256; THRO-infected CEM cells of -1% and a CD25 Δ Emax; CD8 T cells; donor D2256; uninfected CEM cells of 0%. It also gave a CD25 Δ Emax; CD8 T cells; donor D4246; 7552-infected CEM cells of 1%, a CD25 Δ Emax; CD8 T cells; donor D4246; THRO-infected CEM cells of 0% and a CD25 Δ Emax; CD8 T cells; donor D4246; uninfected CEM cells of 0%. For the same substance, the CD25 Δ Emax; CD8 T cells; donor D4279; 7552-infected CEM cells was 0%, the CD25 Δ Emax; CD8 T cells; donor D4279; THRO-infected CEM cells was 1% and the CD25 Δ Emax; CD8 T cells; donor D4279; uninfected CEM cells was 0%. The CD69 EC50; CD4 T cells; donor D1597; 7552-infected CEM cells was greater than 100 µg/mL, the CD69 EC50; CD4 T cells; donor D1597; THRO-infected CEM cells was greater than 100 µg/mL and the CD69 EC50; CD4 T cells; donor D1597; uninfected CEM cells was greater than 100 µg/mL. The CD69 EC50; CD4 T cells; donor D2256; 7552-infected CEM cells was greater than 100 µg/mL, the CD69 EC50; CD4 T cells; donor D2256; THRO-infected CEM cells was greater than 100 µg/mL and the CD69 EC50; CD4 T cells; donor D2256; uninfected CEM cells was greater than 100 µg/mL. The CD69 EC50; CD4 T cells; donor D4246; 7552-infected CEM cells was greater than 100 µg/mL, the CD69 EC50; CD4 T cells; donor D4246; THRO-infected CEM cells was greater than 100 µg/mL and the CD69 EC50; CD4 T cells; donor D4246; uninfected CEM cells was greater than 100 µg/mL. For the same substance, the CD69 EC50; CD4 T cells; donor D4279; 7552-infected CEM cells was greater than 100 µg/mL, the CD69 EC50; CD4 T cells; donor D4279; THRO-infected CEM cells was greater than 100 µg/mL and the CD69 EC50; CD4 T cells; donor D4279; uninfected CEM cells was greater than 100 µg/mL. It also gave a CD69 EC50; CD8 T cells; donor D1597; 7552-infected CEM cells greater than 100 µg/mL, a CD69 EC50; CD8 T cells; donor D1597; THRO-infected CEM cells greater than 100 µg/mL and a CD69 EC50; CD8 T cells; donor D1597; uninfected CEM cells greater than 100 µg/mL. For the same substance, the CD69 EC50; CD8 T cells; donor D2256; 7552-infected CEM cells was greater than 100 µg/mL, the CD69 EC50; CD8 T cells; donor D2256; THRO-infected CEM cells was greater than 100 µg/mL and the CD69 EC50; CD8 T cells; donor D2256; uninfected CEM cells was greater than 100 µg/mL. The CD69 EC50; CD8 T cells; donor D4246; 7552-infected CEM cells was greater than 100 µg/mL, the CD69 EC50; CD8 T cells; donor D4246; THRO-infected CEM cells was greater than 100 µg/mL and the CD69 EC50; CD8 T cells; donor D4246; uninfected CEM cells was greater than 100 µg/mL. The CD69 EC50; CD8 T cells; donor D4279; 7552-infected CEM cells was greater than 100 µg/mL, the CD69 EC50; CD8 T cells; donor D4279; THRO-infected CEM cells was greater than 100 µg/mL and the CD69 EC50; CD8 T cells; donor D4279; uninfected CEM cells was greater than 100 µg/mL. For the same substance, the CD69 Δ Emax; CD4 T cells; donor D1597; 7552-infected CEM cells was 0%, the CD69 Δ Emax; CD4 T cells; donor D1597; THRO-infected CEM cells was 0% and the CD69 Δ Emax; CD4 T cells; donor D1597; uninfected CEM cells was 1%. The CD69 Δ Emax; CD4 T cells; donor D2256; 7552-infected CEM cells was 0%, the CD69 Δ Emax; CD4 T cells; donor D2256; THRO-infected CEM cells was 0% and the CD69 Δ Emax; CD4 T cells; donor D2256; uninfected CEM cells was 0%. The CD69 Δ Emax; CD4 T cells; donor D4246; 7552-infected CEM cells was 3%, the CD69 Δ Emax; CD4 T cells; donor D4246; THRO-infected CEM cells was 1% and the CD69 Δ Emax; CD4 T cells; donor D4246; uninfected CEM cells was -1%. It also gave a CD69 Δ Emax; CD4 T cells; donor D4279; 7552-infected CEM cells of 3%, a CD69 Δ Emax; CD4 T cells; donor D4279; THRO-infected CEM cells of 0% and a CD69 Δ Emax; CD4 T cells; donor D4279; uninfected CEM cells of 0%. For the same substance, the CD69 Δ Emax; CD8 T cells; donor D1597; 7552-infected CEM cells was 0%, the CD69 Δ Emax; CD8 T cells; donor D1597; THRO-infected CEM cells was 0% and the CD69 Δ Emax; CD8 T cells; donor D1597; uninfected CEM cells was 0%. It also gave a CD69 Δ Emax; CD8 T cells; donor D2256; 7552-infected CEM cells of 0%, a CD69 Δ Emax; CD8 T cells; donor D2256; THRO-infected CEM cells of 0% and a CD69 Δ Emax; CD8 T cells; donor D2256; uninfected CEM cells of 0%. It also gave a CD69 Δ Emax; CD8 T cells; donor D4246; 7552-infected CEM cells of 0%, a CD69 Δ Emax; CD8 T cells; donor D4246; THRO-infected CEM cells of 0% and a CD69 Δ Emax; CD8 T cells; donor D4246; uninfected CEM cells of 0%. The CD69 Δ Emax; CD8 T cells; donor D4279; 7552-infected CEM cells was -4%, the CD69 Δ Emax; CD8 T cells; donor D4279; THRO-infected CEM cells was 0% and the CD69 Δ Emax; CD8 T cells; donor D4279; uninfected CEM cells was 0%.
